{"source": "the DeepSol protein solubility set", "data": [{"test": "soluble on expression in E. coli; label from the status in PepcDB or PDB records", "values": [{"sequence": "MGSDKIHHHHHHMGNTINLSRFYKACNPSYTLNMGVMLDRQYYIDFANVRGCKIVEELQRTISRISPDEPTCQLFTGHIGCGKSTELQRLKTELETAGFHVVYFESSQDLDMADIDVSDILLSVARQVCVSLEAIGIKLKPGYFNNLFKEIGDFLQAPIELSGEAEFSLGIAKITAKTKDSTQLRNQLRQYLEPRTNNILQAINEEILEKAVEQLKRRGQKGLVVIVDNLDRVDMRPVASGRTQPEYLFIDRGEQLRRLKCHVVYTIPLALIFSSEYETLKNRLGGGIAPKVLPMVLVRQRDGSDYEPGMSLLRQLVLARAFPEVASQERQQLITELFEQTETLDRLCRVSGGHIRNLLGLLYSCLQRQDPPFSRDCLEAVIKDYRDDLLLAIDECQWELLFDVMQQQSVKGESDYQSLLRSMYLFEYRDPVGRWFGISPALAETEKVLAWRESK", "soluble on expression in E. coli": "not soluble"}, {"sequence": "MSLGEKHHMVLNRDQGITTRFSPQQKRLQLSSPKPYLLFFFTASCGACKEAIPYLNAIEEQWGERFEVIGVLGGSRGIKSDLEFLKRHSIRFKVLSDPSSSDYLSRAVGGVMGVPLFFFFDETGAPKEHFLGLVPQRVLEEEVRSLLEGHHHHHH", "soluble on expression in E. coli": "soluble"}, {"sequence": "MTAQSYHPMIKEFPEFYGPLTCPGQFLALLILEFGLNFAEIQKLKWENFNWNFKYLTIEKAGIKRVLPIREKFAIRVKAINNADELFAKSRQFLYTELKKFTNYSSKEIREQYILHQVKAGKSIYELATLLGLTTITTLEKYYRLEHHHHHH", "soluble on expression in E. coli": "soluble"}, {"sequence": "MGSDKIHHHHHHMERNTRVVKVANLKIGGNNPIIIQSMTNTNSADVEATVKQINNLEKVGCQLVRMTINNIKAAEAIKEIKKKVSLPLVADIHFDYRLALLAIKNGIDKLRINPGNIGSDENVKKVVEAAKEKNIPIRIGVNSGSIEKEILEKYGKPCVDALVESAMYHIRLLEKFDFFDIIVSLKSSNVKMMVEAYRKISSLVDYPLHLGVTEAGTKFQGTVKSAIGIGALLVDGIGDTLRVSLTENPVEEIKVAKEILKVLDLSDEGVEIISCPTCGRTEIDLIGLAKQVEEEFRTKKNKFKIAVMGCVVNGPGEAREADYGIAAGRGIGILFKKGEIIKKVSESNLLEELKKMISEDLENKKD", "soluble on expression in E. coli": "not soluble"}, {"sequence": "MSLQQYEILLDSGTNELEIVKFGVGENAFGINVMKVREIIQPVEVTSVPHSHQHVEGMIKLRGEILPVISLFSFFGVEPEGSKDEKYIVTEFNKRKIVFHVGSVSQIHRVSWEAIEKPTSLNQGMERHLTGIIKLEDLMIFLPDYEKIIYDIESDSGVDTYNMHTEGFDERRTDKKLIIVEDSPLLMRLLQDELKEAGYNNIASFENGKEAYEYIMNLAENETDLSKQIDMIITDIEMPKMDGHRLTKLLKENPKSSDVPVMIFSSLITDDLRHRGEVVGADEQISKPEISDLIKKVDTYVIEGHHHHHH", "soluble on expression in E. coli": "soluble"}, {"sequence": "MGSDKIHHHHHHMSAPRSICLLRLSAIGDTCNAAAVVNAIRQHYPEAEITWVIGKAEAALMAGMDGVNFVVFDKKRGMAAYRNLRRQLQGKRFDALLLMQVALRANLASLCISAKRRIGYDKAKSKELHSLFINERIEPTDKVHVLDNFRQFQKSLGIPLEEPDWNIPVNAEDRGWAKAQLDPNTSKHLIITAAASNTERNWLPDRYAAVADYAASQGFSVYLCGGPADYEKQLAANIQAHAKHSLHNLVGQSSLKQLFALIGEASLVLAPDTGPAHMAVAAGTPVIGLYAHSNPKRTGPYLWQNYVVDAYTPALKQTRGETPEQSRWGQRLKGAELMENITTEQVIDMLDRCIQEQNL", "soluble on expression in E. coli": "not soluble"}, {"sequence": "MAHHHHHHMYQGRSQQPLWTPPPNFSQVETGIYRSAYPTLASVPFLHHIGIKTIVLLSIELLPVPVVRAISEGDVVAGTTSVSDDVHAWKDNECIKWPIRIVSTADLSEWMNEYVCAKDDFAVSSVQRALDFALQPDFQPVLFTCPTGELQTSVIVGCMRRHQGWSLAAVLAECELFVNVTGGVRQSVMNFIEQWDPDEHPVREEDIAKRKRELLLRDPSLSYSVKRHRRTVTHSASDPDSEYDDPLAMGTSRLGQKGTAGNSAGMGLSLSPYKSSGFDRSTLSSTRVGGDELGLSHSSHVVIKLASWYTAAMKRRAAAAEAIVAARAKVRAPSDPLPEPHERYFGVLNPPALDERSTFTKKSIVQDLD", "soluble on expression in E. coli": "not soluble"}, {"sequence": "MDEEMLIPEEEYQKSGVHIGTQVKSSDMKPYIFKIRNDGLYILDVKKTNSKLIVAGKMLARFEPQDILVVAQRQYAFRPVAKFAEVTGATAITGRFNPGTLTNPSLKFYKEVKVIIVTDPLADVQAMKEAVKIGIPIIALCDANNKTDFVDLIIPTNNKGRRSLAVIYWLLAREILKNRGTITSYDQFKYTIDDFEAQI", "soluble on expression in E. coli": "not soluble"}, {"sequence": "GSVYNTKKVGKRLNIQLKKGTEGLGFSITSRDVTIGGSAPIYVKNILPRGAAIQDGRLKAGDRLIEVNGVDLAGKSQEEVVSLLRSTKMEGTVSLLVFRQEEAFHPREMNA", "soluble on expression in E. coli": "soluble"}, {"sequence": "MLNGKNKSAVNRQRFLKRHKEQIKESVADAVNRRSITNTETGEDVSIPHKDINEPIFHQGKGGVRERVHPGNDQFITGDKIERPKGGGQGSGSGEGNASPDGEGQDEFVFQISKDEYLDILFEDLELPNLEKNQIAKITEWKTHRAGFQTAGIPSNISVIRSLQQSLARRTAMTAGKKRLLKELEDELTRIKNIEPAQQLEENRLKKEIEELRKKIENVPFIDTFDLRFKNYEKRPVPSSQAVMFCLMDVSGSMDQATKDIAKRFYVLLYLFLTRTYENVDVVFIRHHTQAKEVDEHEFFYSQETGGTIVSSALKLMDEIVKERYPVGQWNIYAAQASDGDNWADDSPRCRDLLVNKLLPNCQYYSYIEITRRSHQTLWHEYEKLTDEFPNFAMKNIRSVEDIFPVFRELFQKETALEHHHHHH", "soluble on expression in E. coli": "not soluble"}, {"sequence": "MSLGETTNLTFLRTDGQNIVTGTGEIFHIRGVTLTNNFWGNWVNGESEKLQSQGMDPIIRPLVQDAWVLTDDDFERIKDLGCNTVLYDINYQLFAEDNPNREENLKKLKEHIRRFSSMDIYTAVMLMAPPGLDSINDAYEKYKHGSERIKSVFEDDTYYEQWVEMWKYLAEELKDFKGVAGYGLINQPRAPSESEGGIGIFRERLNNVCREIRKIDKNHIIFVPEYNSREANPGESYWNEKTNSYVIDNGEQGIIWERGLVKVDSSNVVYLFHFFEPYNFVNDGVGDFDAESLEAQVRKRYEWAKNVGRAPLLTEYGISRVNSVDKRVQWLETVHDIFDKYGISASYFQYKNAVGAFINVKTGFNALYGEYVSWDSEIGLNPFYFVNEHVATSAKENHFDEALKEYYLKGKNLKKISILDNQPILETLQNFWKEGHHHHHH", "soluble on expression in E. coli": "soluble"}, {"sequence": "MSLEYENEIMDLINDYDMLRVLKHFTVAHVDYAKNITRYTEIPQIRVRAYLERLKEMGLLDYYTNTSIKRTEAKLKKSAEVHKHHTYYQINKKAEAVLKEITPKLYVKVLGKEKLELLCSRKVRKTSPDRCTGLQAMGLIDKCFDLTELGREVFEAALRMQAIRCQDEGHHHHHH", "soluble on expression in E. coli": "soluble"}, {"sequence": "MALAEEDVHMIIKQVLDEVVGASTQYTHKDSVQWNQKAVEQITKKLVAAGKPYKYVVTSSFLQISSGSGLNVSTISYWNKVTDSSYMYRWEAKTMLAIVYVFAIAI", "soluble on expression in E. coli": "not soluble"}, {"sequence": "VADTDGHYRVRAITEISSFNETLGATFSDKEFDTIGGLVINKFGRLPKNGESITIEGFNFTVTRADSRRLHLLKVERIEPGVVEDADSHDSV", "soluble on expression in E. coli": "not soluble"}, {"sequence": "MLNYELELWEKGLLVAGVDEAGRGPLAGPVVAAAVILPPFTEPFIKGDSKKLTKKEREEAYEEIKNKALAVGTAVVDSAVIDRVNILRATKLAMKRALKDLKYHYDIVITDYVKLEGENCMPLVKGDEKSLNCACASIIAKVIRDKIMEIYHKIYPDFNFASNKGYPSKTHLEKVEKGEYTEIHRKSFSPLKKKLF", "soluble on expression in E. coli": "soluble"}, {"sequence": "KNSINTIKLIDDIIALHNDPKGNKLLWNDNWQDKIINRDLANIFEKIDESVSELGGLEMYQEMVGVNPYDPTEPVCGLSAQNIFKLMTEGEHAVDPVEMAQTGKIDGNEFAESVDQLSSAKNYVALVNDRRLGHMFLIDIPSNDQETVGYIYQSDLGQGALPPLKIADWLNSRGKDAVSLNKLKKLLSREFNLLSDDEKRALISETLDIHKDVSNVELDRIKRDRGVDIYLTEYDVNNFYENIETLKSKLSNYDKKLSKPK", "soluble on expression in E. coli": "soluble"}, {"sequence": "MNIYTDKKVVAVGGGHGLGRMLAALKDFGSNATGIVATTDNGGSTGRIRHCQGGIAWGDTRNCINQLITEPSISSMMFEYRFKGTGELDGHNLGNLMLTALDNLSVRPLDAINLIRNMLKVDVNILPMSEHPSDLSALSVNGQWVTGETNVDEMETDLRRLDLSPEVPATKEAVTALAEADAIILGPGSFLTSIMPPLLLPELGKAIAANRKAKVIFVANLSPEYGPAGRMSMAQKLEWCERACQGRRIDVVLAEETDQKVLEQWNVVTEPLASTNRDWRHDRDKLKAAIENQLLTKLEHHHHHH", "soluble on expression in E. coli": "soluble"}, {"sequence": "MSLTFSILARDPNNGRFGVAVATCHLAVGSTVPHIRSGVGAVATQAHTNPYLGICGLERLEHHADAQDVLNSLLLDDPQRDWRQFHLIDLDGRTACWTGVECGGWAGHRHHPNLSVAGNCLAGEVVLEAMEQTFLTSDPNWKLGRRLMTALQAGEQAGGDQRASSCTSAALQVSGEAAFPLLDLRVDFRSGAVEELMELYERSQDRWAQQWRDELLELPMLNRLVAEGHHHHHH", "soluble on expression in E. coli": "soluble"}, {"sequence": "MGSDKIHHHHHHMAFRGWKKLPIRIETGEMVEAIAPVIVSASRATDIPAFHAEWFMTRLRAGYVQWCNPFNARQTQYVSFRKTRAVIFWSKNPAPLLPHLSELDAIGINYSFQFTLNDYEAEGLEPYVLPLAKRIETFRRLASHIGPERVVWRFDPLVLTGRLTADMLLERIGRLAEALGGQTRKLVISFADIECYRAVRLRLSRMGAGAREFAPEEMDEFAARLVERNKDWGLELSACAEDSELAGIAKSRCIDGHVLASCFGDDAELMEFLGGSTLFPGDAPVSVALKHQGQRKACGCIVSKDIGVYGTCQHGCRYCYACR", "soluble on expression in E. coli": "not soluble"}, {"sequence": "MRMPASMEPDWKALLRVLRAHSATFYLGSLLFPKEARKGAWAVYAACRLGDEAVDGEGGGPEALEAWCSGVERAYRGRPLAEWEKGLAWALERWDIPFEAFLHMREGFQTDLGPVRLGTEAELLRYCYQVAGTVGRMMAPIAGGGKEAEARAVKLGQAMQLTNILRDVGEDLGRDRVYLPSELLKAYGVRLSDLEAGRITPEYRALMAHLEGKARALYREGLAGLGHLKVGRAAIALAALQYRGILDKLRLSGYDNLGRRAHLKAWERALLLPKAFLAARFPPRPEGSP", "soluble on expression in E. coli": "soluble"}, {"sequence": "MGSDKIHHHHHHMKLIESVPNFSEGRRKEVVEKIVAEAKKYDRVWVLDWSMDADHNRSVITLVGEPENLINALFDMTKKAAELIDLRNHTGQHPRMGAADVIPLVPLYNTTMEECVEYSKILGRRIGEELGIPVYLYEKSATRPERQNLADIRKGEFEGFFEKIKDPLWKPDFGPDRVHPTAGVTAVGAREFLIAFNVNLGTRDVKIAEKIARAIRFSSGGLRYVKAIGVDLKGRGVVQVSINITNHKKTPLYRVFELIKMEAERYGVPVLGSEIVGLFPLESLLKTVSYYLRTDLNAKKVIESNLLEILVRESEK", "soluble on expression in E. coli": "not soluble"}, {"sequence": "MSSVPSAHSEIVGALYRDHRGWLLAWLRRNVACPQRAQDLSQDTFVRLLGRDELQLPREPRAFLATIAKGLMFDYFRRAALEQAYLGELLQVPEAEQPSPEEQLLILEDLKAIDRMLGTLSSKARAAFLYNRLDGLSHGEIAERLGVSVSRVRQYLAQAVRQCYVALYGEPT", "soluble on expression in E. coli": "not soluble"}, {"sequence": "MAAHFDLTDLQLLVHIGDWHSLTRGAEKSHLSLPAASTRVKNLEEHFGTQLLYRTSQGVTLTPSGEAMLRHARTVMQQVEQMRGDMQEFARGVKGHVRVLANTTAMTEFMPAVLARYLAAHPDVNVELRERLSYLVVRAVADGSADIGVVAGCAPDQKLQFIPYRKDRLVVVTPAGHRLAAEESVAFADTLADDYVGLSEWSAIHPFLVQAAASLGRTFKFRVEVGNFEAVCRMIESGVGIGVIPESAALRYARNLDIALVGLTDEWAVRELQICVKNLDSLPVFARELVETLVADGDAAG", "soluble on expression in E. coli": "soluble"}]}]}
